{"source": "patent US20250367269A1", "about": "“KYNURENINE AMINOTRANSFERASE AND PRODUCTS THEREOF FOR THE TREATMENT OF ARTHRITIC DISEASES” (Institut National de Recherche Pour L'Agriculture, …, priority 2022, published 2025)", "molecules": {"B1": {"name": "AADAT: Recombinant murine alpha-aminoadipate aminotransferase (SEQ ID NO:13) produced in E. coli and purified by affinity chromatography (protein, listed as Mus musculus)", "chain": "MNYSRFLTATSLARKPSPIRTTADILSKAPKTLISLAPGSPNPSMFPFKSAAFTVENGSTIRFEDDLIKRALQYSPSYGIPELLSWLKQFQVKLHNPPTVNYPPNQGQMDLCITSGCQDGLCKAFEMLINPGDTILVNEPLFPGTLYAMKPLGCNIINVPSDEHGIIPEGLKKILSQWKPEDSKDPTKKTPKFLYTVPNGNNPTGNSLTGDRKKEIYELARKYDFLIIEDDPYYFLQFSKPWEPTFLSMDVDGRVIRADTFSKTVSSGLRVGFMTGPKTLIQNIVLHTQVSSVHACTLSQLMILQLLHQWGEEGFLAHIDRTIDFYKNQRDSILAAADKWLRGLAEWHVPKAGMFLWIKVKGISDTKQLIEEKAIEREVLLVPGNGFFIDGSAPTSFFRASFSLATPAQMDTAFQRLAQLIKESL"}}, "key": {"[1]": {"test_system": "collagen-antibody induced arthritis", "assay": "collagen-antibody induced arthritis model", "assay_type": "in vivo, C57BL6J male mice", "method": "C57BL6J male mice were injected intraperitoneally with a cocktail of arthritogenic anti-type II collagen (2 mg/mouse) at day 0. At day 3, mice received an injection of lipopolysaccharide from bacterial cells walls of E. coli 055: B5. The severity of arthritis was evaluated every other day on each paw with a score from 0 to 4, for a maximal score of 16 by animal (0=normal joint, 1=moderate redness and slight swelling or swelling of one or two digits, 2=moderate redness and moderate paw swelling or swelling more than three digits, 3=redness and swelling from tarsal joints to metatarsal joints, 4=severe redness and severe swelling of the entire paw). Hindpaw swelling was measured at the same time by plethysmography. Paw volume determined prior to disease induction was used as the baseline. The development of arthritis was analyzed by histological assessment. Hindpaws were dissected then fixed in 4% formalin (Labonord). Hindpaws were further decalcified in 10% EDTA for 1 month and embedded in paraffin blocks. Five μm-thick tissue sections were cut and two stainings were performed, hematoxylin, eosin and toluidine blue. Histological examination was carried out blindly by three independent observers. Synovium from ankle joint was graded on a scale of 0 to 3 (with 0=normal and 3=major changes) for synovial hyperplasia (width of lining layer) and tissue cell infiltration. […]"}, "[2]": {"assay": "AADAT activity test (transformation of KYNU into KYNA and XANA)", "assay_type": "biochemical", "settings": "15 min in the presence of KYNU (1000 μM), FIG. 3F", "method": "The activity test is based on the disappearance of kynurenine and 3-hydroxykynurenin which are substrates of AADAT. A reaction mixture (50 μL final volume) containing 10 mM L-kynurenine or 3-hydroxykynurenin, 2 mM α-oxoglutarate, 40 μM PLP (pyridoxal 5′-phosphate) and 0 or 1 μL of the purified protein sample prepared in buffer 100 mM potassium phosphate (pH 7.4). Then, the mixture was incubated at 37° C. for 15 min, and the reaction was stopped by the addition of an equal volume of 30% acetic acid. The supernatant of the reaction mixture, obtained by centrifugation at 3000 g for 10 min at 4° C., was mixed equally with Ehrlich's solution and incubated 15 min at room temperature to have a colorimetric reaction. In parallel, a standard range of kynurenine or 3-hydroxykynurenin from 0 μM to 1000 μM was made under the same conditions. The amount of kynurenine or 3-hydroxykynurenin present in the sample was measured with a spectrophotometer at an OD of 492 nm and calculated using the standard range (FIG. 3E). A verification of the production of KYNA and XANA in vitro via the action of our enzyme during 15 min in the presence of KYNU (1000 μM) was carried out (FIG. 3F)."}}}
{"molecule": "B1", "values": [{"measurement": "arthritis severity", "setting": "[1]; daily i.p. recombinant AADAT ~50 μg/d vs vehicle, confirmed by oedema swelling measure and histology (FIG. 4)", "value": "drastically reduced"}, {"measurement": "maximal clinical score mean", "setting": "[1]; score 0 to 4 per paw, maximal 16 by animal, daily i.p. recombinant AADAT ~50 μg/d, 2 experiments, 8 mice per group, vehicle 6.9", "value": 2.6}, {"measurement": "transformation of KYNU into KYNA and XANA in vitro", "setting": "[2]", "value": "dose effect can be observed"}]}
